Publication PMC11948038 (2025)

Target: cytochrome c (UniProt P99999 2-105)
Test: NMR

Sequence of cytochrome c (P99999 2-105): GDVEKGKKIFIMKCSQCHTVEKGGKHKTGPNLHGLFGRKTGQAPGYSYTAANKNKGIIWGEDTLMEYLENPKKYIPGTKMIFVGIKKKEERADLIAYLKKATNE

Kd: 379 µM
B1: full-length ANP32A (natural protein)
chain: MEMGRRIHLELRNRTPSDVKELVLDNSRSNEGKLEGLTDEFEELEFLSTINVGLTSIANLPKLNKLKKLELSDNRVSGGLEVLAEKCPNLTHLNLSGNKIKDLSTIEPLKKLENLKSLDLFNCEVTNLNDYRENVFKLLPQLTYLDGYDRDDKEAPDSDAEGYVEGLDDEEEDEDEEEYDEDAQVVEDEEDEDEEEEGEEEDVSGEEEEDEEGYNDGEVDDEEDEEELGEEERGQKRKREPEDEGEDDD
